Measured values from the supplement of paper PMC9732359.
± gives the uncertainty stated by the source.

Assay: protein stability index of a GFP-peptide fusion (yeast GPS) (PSI 1-4); higher = more stable; sorted into four equal gates, so the index is relative within each strain
Summary of the method: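 Peptides tiling yeast proteins in 17-residue segments were fused downstream of GFP, with Cherry expressed from the same plasmid. As a pooled library in yeast, mid-log cultures grown in leucine-free medium were sorted into four equal gates by GFP/Cherry fluorescence ratio. Gate plasmids were PCR-amplified and Illumina-sequenced, and barcodes linked reads to strains. Each peptide received a protein stability index equal to the sum of each gate's read frequency times its gate number.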

Sequence | protein stability index (doa10∆) | protein stability index (pdr5∆) | protein stability index (san1∆) | protein stability index (ubr1∆)
NTNNINNSSSGMNNASA [YGL172W/NUP49] | 3.33 ± 0.11 | 3.17 ± 0.079 | 3.25 ± 0.056 | 3.22 ± 0.094
GFETSKNIKIIMATNRL [RPT6] | 2.87 ± 0.15 | 2.54 ± 0.084 | 2.36 ± 0.066 | 3.28 ± 0.063
KEEFRLMISPKDEETTE [RRI2] | 1.75 ± 0.069 | 1.68 ± 0.055 | 1.14 ± 0.14 | 1.5 ± 0.039
DNNYNTAETNNKVHETS [YDL088C/ASM4] | 2.99 ± 0.078 | 2.92 ± 0.069 | 2.78 ± 0.052 | 2.81 ± 0.051
VYSKQATFLLTDIKDTL [MCD1] | 2.27 ± 0.062 | 2.3 ± 0.076 | 2.23 ± 0.086 | 2.3 ± 0.057
EGGKNQAELLQLAVKII [YJL039C/NUP192] | 2.87 ± 0.12 | 3.28 ± 0.081 | 3.3 ± 0.2 | 2.72 ± 0.11
SGSQNISEFDSFTDILK [RPN12] | 3.37 ± 0.17 | 3.12 ± 0.09 | 3 ± 0.099 | 3.03 ± 0.066
EDHIFFKYIYELILAGA [YDL116W/NUP84] | 1.74 ± 0.07 | 1.98 ± 0.064 | 1.69 ± 0.089 | 1.66 ± 0.061
AALIASKVYYNLGEYES [RPN2] | 1.88 ± 0.077 | 1.6 ± 0.066 | 1.33 ± 0.067 | 1.69 ± 0.051
LNATKISPSAPSKDSFT [YAR002W/NUP60] | 2.8 ± 0.068 | 3 ± 0.068 | 2.94 ± 0.052 | 3 ± 0.043
SQFCYVSDDESNGEVLE [RPN14] | 3.41 ± 0.22 |  |  | 3.09 ± 0.1
VSEVAKIMQEATQSGGV [PRE8] | 2.96 ± 0.11 | 2.77 ± 0.17 | 2.77 ± 0.15 | 3.05 ± 0.097
SQLPITPMTRISELPPQ [YGL172W/NUP49] | 2.35 ± 0.057 | 2.67 ± 0.047 | 2.13 ± 0.051 | 2.71 ± 0.041
VSGDLNPIHVSRHFASY [FAS1] | 2.51 ± 0.12 | 2.88 ± 0.068 | 2.78 ± 0.079 | 2.81 ± 0.062
NIWGTVRTNRFDIIEES [ECM29] | 2.23 ± 0.23 | 3.35 ± 0.12 | 2.54 ± 0.11 | 2.98 ± 0.12
VKYASPNLNMKYRKRQL [FAS2] | 3.6 ± 0.14 | 3.19 ± 0.09 | 3.02 ± 0.093 | 2.88 ± 0.068
LNDLNHLLVQLQKNDVY [REC8] | 2.52 ± 0.051 | 2.48 ± 0.047 | 2.47 ± 0.058 | 2.17 ± 0.042
RSMSGQPPTNVQPTIGQ [SNF5] | 2.74 ± 0.065 | 2.97 ± 0.071 | 3.01 ± 0.074 | 3.15 ± 0.036
EKFSEKMLKIWTMAFRT [ECM29] | 2 ± 0.11 | 2.09 ± 0.1 | 1.37 ± 0.2 | 1.48 ± 0.09
TPDANLISKPAKKNNFI [UBP6] | 3.12 ± 0.16 | 3.05 ± 0.1 | 3.15 ± 0.12 | 3.21 ± 0.12
RNSKTVREFLEKNYDRK [PRE6] | 3.08 ± 0.27 |  |  | 
KQQDAEELFTQLFHSMS [UBP6] | 3.25 ± 0.059 | 3.31 ± 0.088 | 3.03 ± 0.088 | 3.14 ± 0.061
PFSLTYVRTEETDGKHG [YMR129W/POM152] | 3.13 ± 0.14 | 3.28 ± 0.096 | 3 ± 0.074 | 3.19 ± 0.069
SVKGKVVIDAFRLIDTG [RPN11] | 1.83 ± 0.12 | 2.38 ± 0.099 | 1.92 ± 0.15 | 1.79 ± 0.061
DSFKYEPLAPGNDNLIK [YLR335W/NUP2] | 2.61 ± 0.061 | 2.75 ± 0.045 | 2.63 ± 0.045 | 2.85 ± 0.044
FEGDSNMLICAPTGSGK [BRR2] | 1.79 ± 0.096 | 1.43 ± 0.075 | 1.71 ± 0.14 | 2.18 ± 0.071

Sequence | protein stability index (doa10∆) | protein stability index (pdr5∆) | protein stability index (san1∆) | protein stability index (ubr1∆)
LSKLCVPVANQFINLAG [QCR7] | 1.98 ± 0.059 | 2.13 ± 0.071 | 1.81 ± 0.058 | 1.94 ± 0.033
GVVQMVTDNKTPEMNVT [TAF14] | 2.78 ± 0.16 | 2.67 ± 0.22 | 3.33 ± 0.092 | 
PSDMVIPDHLAELIPEL [SNF12] | 3.09 ± 0.08 | 3 ± 0.069 | 2.88 ± 0.11 | 2.79 ± 0.042
YENKQLYFPDDYPFTQL [POP1] | 2.92 ± 0.048 | 2.99 ± 0.039 | 2.93 ± 0.043 | 3.01 ± 0.036
DYSEIQRSRRKFSERRK [DSN1] | 2.86 ± 0.095 | 3.35 ± 0.24 | 3.46 ± 0.087 | 2.75 ± 0.16
RRGAHGSELSSKIRKIH [SIR3] | 2.32 ± 0.12 | 2.02 ± 0.087 | 2.57 ± 0.15 | 2.54 ± 0.063
ECADLWPRVASNSGVVV [RPL23A] | 2.9 ± 0.17 | 2.63 ± 0.1 | 3.06 ± 0.11 | 3.17 ± 0.062
LDKDRKALIQRKGGKLE [RPL26A] | 2.48 ± 0.18 | 3.5 ± 0.21 | 3.12 ± 0.09 | 2.97 ± 0.14
YLLASLKDSKDFDESLK [RPN9] | 2.69 ± 0.083 | 2.82 ± 0.088 | 2.82 ± 0.099 | 2.52 ± 0.084
INAKNIAFASNYGIVEL [RRP43] | 2.04 ± 0.053 | 1.49 ± 0.056 | 1.4 ± 0.14 | 1.84 ± 0.051
PGEFVTAIAHSIREQVH [SNF5] | 2.27 ± 0.08 | 2.13 ± 0.047 | 1.94 ± 0.054 | 2.29 ± 0.047
DSALRYSILGDRFKYRS [POP4] | 3.27 ± 0.18 | 3.04 ± 0.23 | 3.23 ± 0.098 | 
DCIIRLPVKWETTTQFK [FAS1] | 1.74 ± 0.083 | 2.03 ± 0.074 | 1.94 ± 0.091 | 2.43 ± 0.11
AIPLLKVLRKFRVQSQS [NUT1] | 1.69 ± 0.085 | 1.93 ± 0.079 | 1.69 ± 0.11 | 2.5 ± 0.053
YHSGRLLIQGPKASSAK [ITC1] | 3.15 ± 0.11 | 3.29 ± 0.078 | 3.2 ± 0.059 | 3.17 ± 0.073
FRENMSKEETVDFIKHS [PRE3] | 3.11 ± 0.086 | 3.19 ± 0.086 | 3.16 ± 0.066 | 3.24 ± 0.085
DGLIAPGVRVSGEDVII [RPB2] | 3.05 ± 0.12 | 2.69 ± 0.085 | 3.29 ± 0.16 | 2.67 ± 0.095
QPLFSTVPEYLKTADNR [PGD1] | 2.79 ± 0.088 | 2.6 ± 0.099 | 2.87 ± 0.075 | 2.96 ± 0.057
AVLSYYKVDAEGKVTKL [RPS31] | 2.98 ± 0.11 | 2.99 ± 0.13 | 3.03 ± 0.083 | 3.27 ± 0.065
RVGVVSILEAGDSDILT [RPL30] | 3.1 ± 0.057 | 2.97 ± 0.074 | 2.98 ± 0.07 | 3.03 ± 0.058
TGAPPYYYNTKIYKLEN [YMR129W/POM152] | 2.8 ± 0.063 | 2.72 ± 0.064 | 2.5 ± 0.11 | 3.17 ± 0.041
HTIFSDVCKTRFNHLVT [YML031W/NDC1] | 2.27 ± 0.045 | 2.09 ± 0.044 | 2.15 ± 0.051 | 2.04 ± 0.034
HKSDVMSVDIDKKASMI [ASC1] | 3 ± 0.1 | 2.79 ± 0.083 | 2.48 ± 0.082 | 2.87 ± 0.11
LGRLVKAGKITTIEEIF [RPS2] | 2.03 ± 0.099 | 2.29 ± 0.12 | 2.16 ± 0.14 | 2.25 ± 0.12
HLVMRAISLGLLKGSID [RPN9] | 2.04 ± 0.095 | 2.55 ± 0.14 | 1.58 ± 0.18 | 1.79 ± 0.16
